B1: KtrA from Bacillus subtilis (BsKtrA) (natural protein)
chain: MGRIKNKQFAVIGLGRFGGSICKELHRMGHEVLAVDINEEKVNAYASYATHAVIANATEENELLSLGIRNFEYVIVAIGANIQASTLTTLLLKELDIPNIWVKAQNYYHHKVLEKIGADRIIHPEKDMGVKIAQSLSDENVLNYIDLSDEYSIVELLATRKLDSKSIIDLNVRAKYGCTILAIKHHGDICLSPAPEDIIREQDCLVIMGHKKDIKRFENEGM
notes: KtrA, regulatory RCK subunit of the K+ uptake system KtrAB, Bacillus subtilis; tag-less; Octameric ring (tetramer of homodimers); Used with ATP, with ADP or as apo protein; also called ATP-BsKtrA; ADP-BsKtrA; source: E. coli BL21(DE3), purified (anion exchange, N6-hexyl-ATP agarose, dialysis, SEC)
B2: KtrB from Bacillus subtilis (BsKtrB) (natural protein)
chain: MTLQKDKVIKWVRFTPPQVLAIGFFLTIIIGAVLLMLPISTTKPLSWIDALFTAASATTVTGLAVVDTGTQFTVFGQTVIMGLIQIGGLGFMTFAVLIVMILGKKIGLKERMLVQEALNQPTIGGVIGLVKVLFLFSISIELIAALILSIRLVPQYGWSSGLFASLFHAISAFNNAGFSLWPDNLMSYVGDPTVNLVITFLFITGGIGFTVLFDVMKNRRFKTFSLHTKLMLTGTLMLNAIAMLTVFILEYSNPGTLGHLHIVDKLWASYFQAVTPRTAGFNSLDFGSMREGTIVFTLLLMFIGAGSASTASGIKLTTFIVILTSVIAYLRGKKETVIFRRSIKYPIIIKALAVSVTSLFIVFLGIFALTITEQAPFLQIVFETFSAFGTVGLTMGLTPELTTAGKCIIIVIMFIGRIGPLTFVFSFAKTEQSNIRYPDGEVFTG
notes: KtrB, transmembrane K+ permeation subunit of the K+ uptake system KtrAB, Bacillus subtilis; Membrane protein dimer in detergent (DDM, or 6-cyclohexyl-1-hexyl-beta-D-maltoside for cryo-EM); source: E. coli C43 (DE3), purified (DDM extraction, Ni-NTA, TEV cleavage, second Ni-NTA, SEC); not shown: His tag, N-terminal, cleaved

Key:
[1] = target: T1, BsKtrA (Bacillus subtilis, UniProt O32080); experiment: cryo-EM structure of ADP-BsKtrAB at […] Å (Structure III); assay type: binding
T1 construct: gene ktrA; tag-less BsKtrA (octamer) in the BsKtrAB complex; with BsKtrB
T1 sequence (O32080 1-222): B1 chain
T1 sequence (O32081 1-445 partner): B2 chain

[2] = target: the molecule itself; experiment: cryo-EM structure; ATP-BsKtrAB (Structures I, II, IIa, IIb); BsKtrA and BsKtrB mixed 2:1 with 1 mM ATP, complex taken from SEC; Cryo-EM Buffer (20 mM Tris-HCl pH 8.0, 70 mM NaCl, 30 mM KCl, 0.75 mM 6-cyclohexyl-1-hexyl-beta-D-maltoside) with 1 mM ATP and 2 mM MgCl2, or 1 mM ATP, 2 mM EDTA and 1 mM EGTA; KtrB2A8B2 assembly
[3] = target: B2; experiment: as above; conditions: both partners purified

| Molecule | cryo-EM structure of ADP-BsKtrAB at 2.8 Å (Structure III) [1] | stoichiometry N [2] | binding result [3] |
| --- | --- | --- | --- |
| Nc1ncnc2c1ncn2[C@@H]1O[C@H](COP(=O)(O)OP(=O)(O)O)[C@@H](O)[C@H]1O [ADP] | ATP and ADP share the same binding site located at the intra-dimer interface of KtrA RCK_N subdomains | – | – |
| B1 | – | 8 | binds |
| B2 | – | 2 | – |

— publication PMC11078986, “Structural basis and synergism of ATP and Na^+ activation in bacterial K^+ uptake system KtrAB” (Nature Communications, 2024)
